Measured values from patent publication US20240117030A1 (Pfizer, published 2024).
Where a chain is given by its changes, count along the chain named. Where “and” joins values, the source holds several entries; their conditions need not be identical. Equal values may be shown once.

Assays:
recombinant human IL-4 = target: T1, recombinant human IL-4 (human, UniProt P05112 25-153); experiment: cell-based or functional assay
T1 sequence (looked up): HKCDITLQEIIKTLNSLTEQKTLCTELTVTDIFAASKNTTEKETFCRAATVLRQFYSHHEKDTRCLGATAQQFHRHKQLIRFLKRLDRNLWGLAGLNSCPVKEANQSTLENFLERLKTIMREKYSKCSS

[1] = target: T2, recombinant cynomolgus monkey IL-4 (cynomolgus monkey, UniProt P79339 25-153); experiment: competition ELISA: test species IL-4 against biotinylated human IL-4 for binding to IL4-1305
T2 construct: also called Cyno IL-4
T2 sequence (looked up): T1 sequence (looked up) with E26K, V29I, F33L
Description: (§1) Recombinant human, mouse, rat, dog, and rabbit IL 4 were purchased from R&D Systems (Minneapolis, MN). Recombinant cynomolgus monkey and sheep IL-4 were prepared by Pfizer, Cambridge, MA).

recombinant rabbit IL-4 = target: T3, recombinant rabbit IL-4 (rabbit, UniProt Q9MZR8 25-147, limits assumed); experiment: as above
T3 sequence (looked up): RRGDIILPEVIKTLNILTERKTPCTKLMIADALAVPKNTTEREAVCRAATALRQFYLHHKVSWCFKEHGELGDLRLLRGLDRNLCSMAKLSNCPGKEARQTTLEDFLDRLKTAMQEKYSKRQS
Description: as §1

recombinant mouse IL-4 = target: T4, recombinant mouse IL-4 (mouse, UniProt P07750 23-140); experiment: as above
T4 sequence (looked up): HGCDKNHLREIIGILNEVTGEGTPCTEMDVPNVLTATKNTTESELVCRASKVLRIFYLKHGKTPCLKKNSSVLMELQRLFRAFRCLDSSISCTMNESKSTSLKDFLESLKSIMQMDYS
Description: as §1

recombinant rat IL-4 = target: T5, recombinant rat IL-4 (rat, UniProt P20096 25-147, limits assumed); experiment: as above
T5 sequence (looked up): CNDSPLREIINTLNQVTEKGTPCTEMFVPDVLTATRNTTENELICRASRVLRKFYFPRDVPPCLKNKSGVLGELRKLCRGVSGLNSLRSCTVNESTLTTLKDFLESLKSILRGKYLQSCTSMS
Description: as §1

recombinant sheep IL-4 = target: T6, recombinant sheep IL-4 (sheep, UniProt P30368 25-135, limits assumed); experiment: as above
T6 sequence (looked up): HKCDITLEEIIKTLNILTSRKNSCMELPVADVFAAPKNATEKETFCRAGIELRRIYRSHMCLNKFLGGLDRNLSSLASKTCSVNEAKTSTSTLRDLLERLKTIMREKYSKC
Description: as §1

recombinant dog IL-4 = target: T7, recombinant dog IL-4 (dog, UniProt O77762 25-132); experiment: as above
T7 sequence (looked up): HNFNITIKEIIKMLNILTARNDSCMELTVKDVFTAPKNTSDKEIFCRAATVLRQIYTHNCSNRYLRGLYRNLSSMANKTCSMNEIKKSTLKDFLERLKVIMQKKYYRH
Description: as §1

recombinant human IL-13 [2] = target: T8, recombinant human IL-13 (human, UniProt P35225 35-146); experiment: cell-based or functional assay
native human IL-13 = native human IL-13 (human, UniProt P35225 35-146, limits assumed); experiment: cell-based or functional assay
recombinant dog IL-13 = target: T9, recombinant dog IL-13 (dog, UniProt Q9N0W9 19-131, limits assumed); experiment: competition ELISA: test species IL-13 against biotinylated human IL-13 for binding to IL13-0001
T9 sequence (looked up): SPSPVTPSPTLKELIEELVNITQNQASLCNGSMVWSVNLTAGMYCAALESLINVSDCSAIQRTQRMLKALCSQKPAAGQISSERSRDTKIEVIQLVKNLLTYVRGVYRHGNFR
Excerpt: (§2) Recombinant human, mouse, rat, and dog IL 13 were purchased from R&D Systems (Minneapolis, MN). Recombinant sheep and rabbit IL-13 were produced by Pfizer Global Biotechnologies (PGBT, Cambridge, MA). Recombinant cynomolgus monkey IL 13 was purchased from Sino Biological (Beijing, China).

recombinant mouse IL-13 = target: T10, recombinant mouse IL-13 (mouse, UniProt P20109 26-131, limits assumed); experiment: as above
T10 sequence (looked up): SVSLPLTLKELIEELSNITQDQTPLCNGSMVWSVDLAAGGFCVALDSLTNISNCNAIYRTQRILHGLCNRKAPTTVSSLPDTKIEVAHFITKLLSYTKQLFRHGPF
Excerpt: as §2

[3] = target: T11, recombinant cynomolgus monkey IL-13 (cynomolgus monkey, UniProt Q0PW92 19-132); experiment: as above
T11 construct: also called Cyno IL-13
Excerpt: as §2

recombinant human IL-13 [4] = target: T8, recombinant human IL-13; experiment: cell-based or functional assay; remark: listed apart in the source
recombinant human IL-13 [5] = target: T8, recombinant human IL-13; experiment: cell-based or functional assay; remark: listed apart in the source
recombinant human IL-13 [6] = target: T8, recombinant human IL-13; experiment: cell-based or functional assay; remark: listed apart in the source
mouse IL-4 = target: T12, mouse IL-4 (mouse, UniProt P07750 23-140); experiment: ELISA: competition with biotinylated human IL-4 for binding to IL4-1305
T12 construct: also called mu IL-4
T12 sequence (looked up): T4 sequence (looked up)
Description: as §1

dog IL-4 = target: T13, dog IL-4 (dog, UniProt O77762 25-132); experiment: as above
T13 sequence (looked up): T7 sequence (looked up)
Description: as §1

cynomolgus monkey IL-4 = target: T14, cynomolgus monkey IL-4 (cynomolgus monkey, UniProt P79339 25-153); experiment: as above
T14 construct: mature; also called cy IL-4; cyno IL-4
T14 sequence (looked up): T1 sequence (looked up) with E26K, V29I, F33L
Description: as §1

rat IL-4 = target: T15, rat IL-4 (rat, UniProt P20096 25-147, limits assumed); experiment: as above
T15 construct: also called rt IL-4
T15 sequence (looked up): T5 sequence (looked up)
Description: as §1

rabbit IL-4 = target: T16, rabbit IL-4 (rabbit, UniProt Q9MZR8 25-147, limits assumed); experiment: as above
T16 construct: also called rb IL-4
T16 sequence (looked up): T3 sequence (looked up)
Description: as §1

sheep IL-4 = target: T17, sheep IL-4 (sheep, UniProt P30368 25-135, limits assumed); experiment: as above
T17 sequence (looked up): T6 sequence (looked up)
Description: as §1

T8 sequence (P35225 35-146 limits assumed): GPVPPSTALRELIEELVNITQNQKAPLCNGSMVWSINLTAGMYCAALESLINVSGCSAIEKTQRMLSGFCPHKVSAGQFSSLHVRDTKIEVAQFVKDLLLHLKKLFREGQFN
Sequence of native human IL-13 (P35225 35-146 limits assumed): as above
T11 sequence (Q0PW92 entry or part of it limits assumed): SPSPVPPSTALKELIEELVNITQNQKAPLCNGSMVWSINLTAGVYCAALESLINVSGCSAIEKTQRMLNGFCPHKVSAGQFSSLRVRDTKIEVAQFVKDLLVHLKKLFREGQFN

B1: IL4-1305 (antibody, human IgG1, kappa)
heavy: EVTLRESGPALVKPTQTLTLTCTFSGFSLSNFGEGLSWIRQPPGKGLEWLAHIYWDDDKRYNPSLKSRLTISKDTSRNQVVLTMTNMDPVDTATYYCARRETVFYWYFDVWGRGTPVTVSSASTKGPSVFPLAPSSKSTSGGTAALGCLVKDYFPEPVTVSWNSGALTSGVHTFPAVLQSSGLYSLSSVVTVPSSSLGTQTYICNVNHKPSNTKVDKKVEPKSCDKTHTCPPCPAPEAAGAPSVFLFPPKPKDTLMISRTPEVTCVVVDVSHEDPEVKFNWYVDGVEVHNAKTKPREEQYNSTYRVVSVLTVLHQDWLNGKEYKCKVSNKALPAPIEKTISKAKGQPREPQVYTLPPSREEMTKNQVSLTCLVKGFYPSDIAVEWESNGQPENNYKTTPPVLDSDGSFFLYSKLTVDKSRWQQGNVFSCSVMHEALHNHYTQKSLSLSPGK
light: DIQMTQSPSSLSASVGDRVTITCKASQSVDEDGDSYMNWYQQKPGKAPKLLIYAASNLESGVPSRFSGSGSGTDFTLTISSLQPEDFATYYCQQSNEDPPTFGGGTKVEIKRTVAAPSVFIFPPSDEQLKSGTASVVCLLNNFYPREAKVQWKVDNALQSGNSQESVTEQDSKDSTYSLSSTLTLSKADYEKHKVYACEVTHQGLSSPVTKSFNRGEC
IC50 for STAT6 Phosphorylation in gated B Cells, human whole blood (recombinant human IL-4): 0.073 nM
IC50 for STAT6 Phosphorylation in gated Monocytes, human whole blood (recombinant human IL-4): 0.1 nM
IC50 for STAT6 Phosphorylation in gated T cells, human whole blood (recombinant human IL-4): 0.075 nM
binding result [1]: binds
binding result (recombinant rabbit IL-4): no binding
binding result (recombinant mouse IL-4): no binding
binding result (recombinant rat IL-4): no binding
binding result (recombinant sheep IL-4): no binding
binding result (recombinant dog IL-4): no binding

B2: IL13-0001 (antibody, human IgG1, kappa, V domains shown)
VH: EVQLVESGGGLVQPGGSLRLSCAASGFTFSSYAMSWVRQAPGKGLEWVASISSGDTTYYPDSVKGRFTISRDNAKNSLYLQMNSLRAEDTAVYYCARNEGYYFGLTLWGQGTLVTVSS
VL: DIQMTQSPSSLSASVGDRVTITCKASESVDHFGWSLVHWYQQKPGKAPKLLIYRASNLESGVPSRFSGSGSGTDFTLTISSLQPEDFATYYCQQSNEDPWTFGGGTKVEIKR
notes: also called IL13433-0001; 1RVHC9-VLA4
IC50 (median), Monocyte CD23 expression (recombinant human IL-13 [2]): 0.0105 nM
IC50 (median), STAT6 phosphorylation in HT-29 cells (recombinant human IL-13 [2]): 0.092 nM
IC50 (median), STAT6 phosphorylation in HT-29 cells (native human IL-13): 0.079 nM
binding result (recombinant dog IL-13): no binding
binding result (recombinant mouse IL-13): no binding
binding result [3]: binds
IC50 (median) for STAT6 Phosphorylation in gated B Cells, human whole blood (recombinant human IL-13 [4]): 0.0665 nM
IC50 (median) for STAT6 Phosphorylation in gated Monocytes, human whole blood (recombinant human IL-13 [4]): 0.525 nM
IL-13 induced CD23 upregulation (IC50), parental IgG (recombinant human IL-13 [5]): 0.0047 nM and 0.00438 nM
IC50 (median), IL-13 induced CD23 expression on human monocytes (recombinant human IL-13 [6]): 0.00438 nM

B3: IL4-1305 (antibody, IgG1)
VH: EVTLRESGPALVKPTQTLTLTCTFSGFSLSNFGEGLSWIRQPPGKGLEWLAHIYWDDDKRYNPSLKSRLTISKDTSRNQVVLTMTNMDPVDTATYYCARRETVFYWYFDVWGRGTPVTVSS
light: B1 light
notes: IgG1 effector-null
binding result (mouse IL-4): no binding
binding result (dog IL-4): no binding
binding result (cynomolgus monkey IL-4): binds
binding result (rat IL-4): no binding
binding result (rabbit IL-4): no binding
binding result (sheep IL-4): no binding
